53 sequences from the supplement of paper PMC12764529 can be followed below.

± gives the half width of the 95% confidence interval. Some results are limits rather than exact numbers.

The nature of the series: folding stability dG unfold (combined trypsin and chymotrypsin); higher = more stable. On the procedure: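 Folding stability of de novo designed mini-proteins (<80 aa, no Cys; designed by TrROS, TrMRF, ProteinMPNN and the joint model) was measured by cDNA display proteolysis with trypsin and chymotrypsin. Each protease was used at 11 concentrations in a threefold dilution series plus a no-protease condition. K50 was inferred by Bayesian fitting of sequencing counts, and dG unfold was derived against a sequence-predicted unfolded-state K50 (Tsuboyama et al. method). Sequences shown include variable-length N-terminal GS-type padding (SAGGSAGG...) inside a display construct carrying a PA tag. Rows were kept only if the AF2 dimer inter-PAE was >15, to exclude likely homo-oligomers.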
Turning to “EPEYVVFVDINPVFTRVDENGNVLEEFPRKVPYTGPGKDPEKVREELEREYGPPVKILKTLPKSEVDAGLLS [r1_493_JUSTAS]”, the “folding stability dG unfold” value is less than -1 kcal/mol.

As for “GMRPVTATIEIGPNGKLTLQPAVGPSTVVPVKSKEEGIAVVKELVPPDRPITLTFYEKSKKISTEPIEIPPS [r1_276_JUSTAS]”, the “folding stability dG unfold” value was less than -1 kcal/mol.

For “KVPAGVEDVKVVKGPLTVKITAPVKNPNVPIKVGNKDGKVVSEKWKVDKAAGKVTVEVPVKKANEVTFNPES [r1_138_TrMRF]”, the “folding stability dG unfold” value was less than -1 kcal/mol.

For the sequence “MKIVIDKDGNIRIEIIDKDGKKITLTLPVKTLEEALQKIKDLIRELFPDAKDLKVKVVEVKDGYVVIEVEPS [r1_389_TrROS_Hall]”, the “folding stability dG unfold” value was greater than 6 kcal/mol.

On to “PIITVSSLEELKKAIKELVEKIVEEAKKAGYPDKKVIVSIPVVLIDEKTGKPKILPILIEIYPDGTVKIYGS [r1_316_TrMRF]”, for which the “folding stability dG unfold” value was greater than 6 kcal/mol.

On to “PINPEIAEKLKVAIANKLKEAGYKVKSVSISPLPDGTISGKVGDKTVTLPLPNGGTAGISVEAEKVSPEEAS [r1_31_TrMRF]”, for which the “folding stability dG unfold” value is less than -1 kcal/mol.

As for “SADWYYWKNPKDGKEHTVDPEELSPEFAKKGIEPEEPVPPVINIDVDSAEQADELADEFPNKVQVQPNGSAG [r14_638_TrROS]”, the “folding stability dG unfold” value is less than -1 kcal/mol.

“SAGAKLYTVKAPGSSELLKGLKEKGVEILGTEENVVVVKVPVVPPLTPEAIEEAKKEGLTLEEAIKKASAGG [r19_115_TrMRF]”: the “folding stability dG unfold” value was less than -1 kcal/mol.

With “SAGGEFKLKREEDPDGERKITLEFPGWPYEVVIPKNAKDLPPGNPIYVRGGGGTRTMPIKDLLPELLNSAGG [r13_97_TrROS]”, the “folding stability dG unfold” value is less than -1 kcal/mol.

For the sequence “SAGGEGEELIIPSSFPLEKIEELEKAHPDAKAEIVEINLRGPVLLPGGGVRPVPSFLKVRLYRREERSAGGS [r8_172_TrMRF]”, the “folding stability dG unfold” value is less than -1 kcal/mol.

Take “SAGGGGMTVEPVAERRFPSGRRITFYRRELPTPTVLEDVVVEYPDGSVRTITVPVGEEAAAVAAVLASAGGS [r16_588_JUSTAS]”: the “folding stability dG unfold” value is less than -1 kcal/mol.

Consider “SAGGGSSMSPISDQQTSSSLPDGTTVTRTTTTYPTSVLVTTTTTDPATGAPTTTTTTYTTPGSSVAGSAGGS [r16_419_JUSTAS]”, for which the “folding stability dG unfold” value was less than -1 kcal/mol.

On to “SAGGGWEKIPITPNDKNQAKEIADEFADKLQQDPGIPKEVEIDVQPPPNNQYWIEVEYPGKKLEIPISAGGS [r16_356_TrROS]”, for which the “folding stability dG unfold” value is less than -1 kcal/mol.

As for “SAGGIRMPPGQTQTFKLPGRKIEVHMGPNGPIYIEIENPGNGEPVEVPMRGDMTIDEMADAILDKLGSAGGS [r8_158_TrROS]”, the “folding stability dG unfold” value is less than -1 kcal/mol.

With “SAGGKDAIVNVVEIPIKIEVKTKTKNPILPDGIPIPETELEVKIEIPIKVKPVKVKLEKPGKIVSVEDSAGG [r13_148_TrMRF]”, the “folding stability dG unfold” value is less than -1 kcal/mol.

As to “SAGGKPMIHINMEENPNGNPYMRVQVMRMDPKNNGWKPVEEVRFDSPQDMRDEAKELADKEGVYLMISAGGS [r16_512_TrROS]”, the “folding stability dG unfold” value was less than -1 kcal/mol.

Take “SAGGMEEIAEKLPVTKIETLEVDPEPPVVKVKLTLKDESGTEKEIELTIELPPEPLPVPKFPPERILLSAGG [r13_608_JUSTAS]”: the “folding stability dG unfold” value is less than -1 kcal/mol.

In the case of “SAGGMIVLEFTDPSELEKLEEKVEEIKEELIKEGIKPPNVEIKVTRTTRKLPNGTERYTAPVSIKLPSAGGS [r16_591_JUSTAS]”, the “folding stability dG unfold” value is less than -1 kcal/mol.

For “SAGGMKTIEYPVVMDEEEAVKLVEELVAKAKAEGEETVVKVEVYRIGKGPDGVPTREKLGTYEVEVPGSAGG [r13_974_JUSTAS]”, the “folding stability dG unfold” value was less than -1 kcal/mol.

With “SAGGMKTIKLPPFTEEELEKVIEEAEKNPNSDVKITLPEGKEYYIKPPGKLKELKVEELPPLPESLESAGGS [r16_248_JUSTAS]”, the “folding stability dG unfold” value is less than -1 kcal/mol.

In the case of “SAGGMKTVVTTEPATFDATDPNTGVPIGTVTIGPVVTTKPPNAVTTHYTFRIGGTEVATSTTTNPGLASAGG [r13_758_JUSTAS]”, the “folding stability dG unfold” value is less than -1 kcal/mol.

Take “SAGGMRLADTLEEVENAAPGEIVALRAPDPLTPRPVVLVFRNPDGELGPLAYADADGNIHLPEELKEAGSAG [r5_490_TrMRF]”: the “folding stability dG unfold” value is less than -1 kcal/mol.

Take “SAGGMSIRELLKEKGIPIKVENEPTDGRPRMKITIQDNDKPVKIDMPMDDPERMIRDAAKELGLKPISAGGS [r8_226_TrROS]”: the “folding stability dG unfold” value is less than -1 kcal/mol.

With “SAGGMTLEEVRALAQRVSREPLPGGGSRWVVTFPRPVPGGPAAPVTREIPVPADRPDATEEEVLARLVSAGG [r13_319_JUSTAS]”, the “folding stability dG unfold” value was less than -1 kcal/mol.

On to “SAGGMTSEVIETTEEEPERLIKKTFKVTYDENGTPKPELLKVETSPVPEEEIDPSNAPKEKAEKLGLLSAGG [r13_964_JUSTAS]”, for which the “folding stability dG unfold” value was less than -1 kcal/mol.

On to “SAGGMVVELPSGLSPEELERAAEEIAAELPRRGVDPVEVTIEPVREVAPPDGPPVRLYRITIDTVPPSAGGS [r16_266_JUSTAS]”, for which the “folding stability dG unfold” value is less than -1 kcal/mol.

On to “SAGGNKITIEVNMNPEEGYYMVPIEIPRRDPNGEPEKRKIEVMVPMSPNAQEKAKNLANKLGIDKIYSAGGS [r8_381_TrROS]”, for which the “folding stability dG unfold” value was less than -1 kcal/mol.

Take “SAGGPGKYRVIFYPKDTDKPIEADVPASHIKKFDPKNNFIEISAPPGPTLTIPDPDKVKKVIIEPIPSAGGS [r8_111_TrMRF]”: the “folding stability dG unfold” value is less than -1 kcal/mol.

For the sequence “SAGGPNFEIEPEWDPDNGIVKETIKVPPGMTPEAINDALEIEFPDGMEVQIKPIKDGTIKVYMRMPKSAGGS [r8_255_TrROS]”, the “folding stability dG unfold” value is less than -1 kcal/mol.

With “SAGGPPKIKITDIRPNKGHMRYKIKDPNKEVEIHMHGNSMHIEYPDGKEKTFDGPGSFEDAAKRIIEKSAGG [r13_98_TrROS]”, the “folding stability dG unfold” value was less than -1 kcal/mol.

Take “SAGGPPKKIEDIKIEDWRYDPENNQVTNTIELENDNGKEREIDVQMPNEDMEDMPPEEMLKAAKDFIDSAGG [r13_512_TrROS]”: the “folding stability dG unfold” value was less than -1 kcal/mol.

As for “SAGGRGPGLPVSERKIVETRDLDPDEVSEEEIAERIKEENPDAVVEELEVDTKESKAVFKIKVKKLESAGGS [r8_202_JUSTAS]”, the “folding stability dG unfold” value is less than -1 kcal/mol.

Consider “SAGGRYLTLRIPPNHPGDIDIEPVPADDMPPGWGYKIYSPKKGHTQTFPLDNADELLDHPGIDEIEPVSAGG [r19_302_TrROS]”, for which the “folding stability dG unfold” value was less than -1 kcal/mol.

Take “SAGGSAASRVSVEKLPNGTVVTPVEVEVTTYKPYPSYDGTPTTVPVTTRTTRTVTTEGNVVTTEVASAGGSA [r15_883_JUSTAS]”: the “folding stability dG unfold” value was less than -1 kcal/mol.

On to “SAGGSAATVVDPSTGSTYTFTPEGSGYRITRTLVTPDPTSDAVSTAPTTELLPPSEIPPELLARLSSAGGSA [r15_703_JUSTAS]”, for which the “folding stability dG unfold” value was less than -1 kcal/mol.

With “SAGGSAEKPIPFGNYQIRIHEIDPKEGKITIHVPDNMPPNMKEQARDWLQERGLPIEVEPVPAEDISAGGSA [r15_570_TrROS]”, the “folding stability dG unfold” value is less than -1 kcal/mol.

For “SAGGSAFFRIKVEKNNGKKREIMFPIPENHDPSEAREMVKELAKNIARKQGHPNVPIKVTDIEPFPSAGGSA [r15_463_TrROS]”, the “folding stability dG unfold” value is less than -1 kcal/mol.

“SAGGSAGGAEAVEAAKAKLPPDEERTVVVPDPDDPSRVTTYTLTARGDEVEVPVTTEPVPPGLESAGGSAGG [r6_393_JUSTAS]”: the “folding stability dG unfold” value was less than -1 kcal/mol.

For the sequence “SAGGSAGGDNKPLRVRIRSPANGQKMKFKIKPDKIEPGKTIEIKHGDKPHTFNINPAQIDELEPSAGGSAGG [r6_461_TrROS]”, the “folding stability dG unfold” value is less than -1 kcal/mol.

For “SAGGSAGGEKPLKVTIKVKEKRLTENGIPEEFEKEIVVEAPLEEATKLVKAIPKDKVVSVEVEGSAGGSAGG [r6_984_TrMRF]”, the “folding stability dG unfold” value was less than -1 kcal/mol.

As for “SAGGSAGGEVEEEALKVAEELRREGKTGPVEKTVDIVVKTPENVPIPLNITVTVEPPSGVVTVNSAGGSAGG [r6_102_JUSTAS]”, the “folding stability dG unfold” value was less than -1 kcal/mol.

As for “SAGGSAGGFTFRDPENGRKITIEPQPNPDGPMYYNIEVRDPDNNENKTINFPMPLNEIEDLAKDSAGGSAGG [r6_996_TrROS]”, the “folding stability dG unfold” value is less than -1 kcal/mol.

As to “SAGGSAGGMITDADGNAFEVASAEPFELANGEPVIRFRFKGSGEIRTVPAADIPDGIPEEAKFESAGGSAGG [r6_370_TrMRF]”, the “folding stability dG unfold” value was less than -1 kcal/mol.

In the case of “SAGGSAGGMKITEVTSEAPVPETGEVVRVAKTEDGSTITTVEYPGTGETRVYREKPDEVTPIALSAGGSAGG [r6_796_JUSTAS]”, the “folding stability dG unfold” value is -0.865 ± 0.79 kcal/mol.

As to “SAGGSAGGMKTIPLPGWTPEEFREVIKKHGGTFTIERPGGEKVTVDFTPDSEPPPEEPHTLIISSAGGSAGG [r6_304_JUSTAS]”, the “folding stability dG unfold” value is less than -1 kcal/mol.

“SAGGSAGGMPLRVDFRPSDSDEVTTRELPLTGDEEEARARVEAAAPPGVASVDLDPEAFRAAAASAGGSAGG [r6_889_JUSTAS]”: the “folding stability dG unfold” value was less than -1 kcal/mol.

Consider “SAGGSAGGNTITLPLPDGRKLTIDMHPNPDGNMYVNIDVQTPGKEKEITVPMDNPAIREAVKELSAGGSAGG [r6_607_TrROS]”, for which the “folding stability dG unfold” value is less than -1 kcal/mol.

Regarding “SAGGSAGGPKPAKIKEVPFKMRHPGNGQPHKMEIKEVRPDGMIEIDFPNGEEHRIPGMKIDEIESAGGSAGG [r6_435_TrROS]”, the “folding stability dG unfold” value was less than -1 kcal/mol.

Consider “SAGGSAGGPPPLIVTIKLEHKREKPNGEPEKRKHEIIVDAPNEQADKLAKKMPPDNVEDVEIAKSAGGSAGG [r6_985_TrROS]”, for which the “folding stability dG unfold” value is less than -1 kcal/mol.

Turning to “SAGGSAGGPPVVTKTDPNTGAVYTKVGDTWTSTPVPPPVVVRPVPLYDPDGRPLATGYTVLRLESAGGSAGG [r6_313_JUSTAS]”, the “folding stability dG unfold” value is less than -1 kcal/mol.

Regarding “SAGGSAGGPVIPTPSDLVVEVGKLSEELSFLSKSVRPNGPEELVFDSSVLVEEGVKVLKPSDRRSAGGSAGG [r6_586_JUSTAS]”, the “folding stability dG unfold” value is less than -1 kcal/mol.

Consider “SAGGSAGGSAAPVSEREVTLTGSGTPRVVPVRVLGEAASPSESIATEATLPDGRPLRLTLRESAGGSAGGSA [r18_54_JUSTAS]”, for which the “folding stability dG unfold” value is less than -1 kcal/mol.

Take “SAGGSAGGSAASNGPLPVPLPETVIEAPLDEVPDEEIRARLPEELAEEFLRRMPPDATVLLSAGGSAGGSAG [r3_326_JUSTAS]”: the “folding stability dG unfold” value is less than -1 kcal/mol.
